Results from US20240117043A1 (SHANGHAI JUNSHI BIOSCIENCES, published 2024).

T1: human TIGIT on the surface of Jurkat-hTIGIT cells (human, UniProt Q495A1 22-244)
T1 construct: whole, on cells; also called human TIGIT on the surface of Jurkat cells
T1 sequence (looked up): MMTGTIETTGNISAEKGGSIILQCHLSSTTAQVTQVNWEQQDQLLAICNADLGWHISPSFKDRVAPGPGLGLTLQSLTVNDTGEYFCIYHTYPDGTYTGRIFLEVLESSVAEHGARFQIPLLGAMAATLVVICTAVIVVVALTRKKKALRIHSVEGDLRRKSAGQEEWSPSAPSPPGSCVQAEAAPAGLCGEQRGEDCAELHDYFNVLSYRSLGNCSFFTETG

T2: recombinant human TIGIT (His Tag) (human, UniProt Q495A1 22-141)
T2 construct: Coated antigen of the ELISA; not shown: His tag
T2 sequence (looked up): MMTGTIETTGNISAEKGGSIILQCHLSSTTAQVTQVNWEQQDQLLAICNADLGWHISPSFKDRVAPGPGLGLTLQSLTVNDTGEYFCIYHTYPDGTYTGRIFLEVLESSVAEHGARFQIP

T3: human CD112R-mFc protein (human, UniProt Q6DKI7 41-171, limits assumed)
T3 construct: also called human CD112R protein; not shown: mouse Fc (mFc)
T3 sequence (looked up): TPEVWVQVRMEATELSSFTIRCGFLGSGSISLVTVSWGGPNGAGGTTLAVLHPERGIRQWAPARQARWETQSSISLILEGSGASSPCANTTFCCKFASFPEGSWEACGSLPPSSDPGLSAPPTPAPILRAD

T4: recombinant human HX1 hCD112R Fc (human, UniProt Q6DKI7 41-171, limits assumed)
T4 construct: Coated antigen of the ELISA (Suzhou Junmeng); also called human CD112R; not shown: Fc part
T4 sequence (looked up): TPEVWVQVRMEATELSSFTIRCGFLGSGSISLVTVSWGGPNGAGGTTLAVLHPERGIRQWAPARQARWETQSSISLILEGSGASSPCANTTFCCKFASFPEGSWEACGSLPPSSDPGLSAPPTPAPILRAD


How the values were obtained:
[1] = target: T1, human TIGIT on the surface of …; experiment: flow cytometry, blocking of 1 ug/mL PVR-mFc binding to Jurkat-hTIGIT cells
Experimental: Jurkat-hTIGIT cells (human T lymphocytes, human TIGIT positive) were incubated with different concentrations of the bispecific antibodies JS-1, JS-3, JS-5 and JS-9 and 1 μg/mL human PVR-mFc protein at 4° C. for 30 min, then washed and incubated with a fluorescence-labeled anti-mouse IgG secondary antibody (1:200) in a dark place at 4° C. for 30 min. Finally, the cells were collected using a flow cytometer (BD Canto II), and the fluorescent antibodies bound to the cell surface were detected. Raw data were analyzed using FlowJo to obtain MFI values, antibody dose-dependent binding curves (FIG. 4) were fitted using GraphPad, and IC50 was calculated. The positive controls were hu20 (a recombinant humanized anti-TIGIT monoclonal antibody) and JS-Ref (Hengrui) (an anti-TIGIT/CD112R bispecific antibody of Hengrui, expressed and purified according to the sequence of the patent WO2021180205), and the negative control was an anti-KLH-hIgG4 antibody.

[2] = target: T2, recombinant human TIGIT (His Tag); experiment: ELISA, plate coated with recombinant human TIGIT (His Tag), detection with HRP anti-human IgG4 Fc; unit taken from the concentration axis [2a]
Experimental: (§1) 2. Procedures [0241] a. A 96-well plate was coated with 1.5 μg/mL recombinant human TIGIT (His Tag) (Suzhou Junmeng) as the antigen at 100 μL/well and incubated at 37° C. for 1.5 h. [0242] b. The plate was washed 4 times with 300 μL/well 1×PBST, and 2% BSA was added at 200 μL/well. The plate was blocked at 37° C. for 1.5 h. [0243] c. The plate was washed 4 times with 300 μL/well 1×PBST, and serial dilutions of the bispecific antibodies JS-1,3,5,9 and a negative control: antibody (anti-KLH hIgG4) (initial concentration 1.0 μg/mL, 3-fold serially diluted to 12 concentration points, 100 μL/well) were added. The plate was incubated at 37° C. for 1 h. [0244] d. The plate was washed 4 times with 300 μL/well 1×PBST. [0245] e. 5000-fold diluted horseradish peroxidase (HRP)-conjugated mouse anti-human IgG4 Fc antibody (Southern Biotech, 9200-05) was added at 100 μL/well, and the plate was incubated at 37° C. for 1 h. […] The plate was washed 4 times with 300 μL/well 1×PBST. [0247] g. 0.1 mg/mL TMB was added at 100 μL/well, and after the plate was incubated at 37° C. for 15 min, a 2 M solution of hydrochloric acid was added at 100 μL/well to stop the reactions. [0248] h. The absorbance was measured at 450 nm/620 nm on a microplate reader, and data were analyzed using Graphpad Prism7.

[3] = target: T2, recombinant human TIGIT (His Tag); experiment: ELISA, plate coated with recombinant human TIGIT (His Tag), detection with HRP anti-human IgG4 Fc; unit taken from the concentration axis [2b]
Experimental: as §1

human CD112R-mFc protein = target: T3, human CD112R-mFc protein; experiment: flow cytometry, blocking of 1 ug/mL CD112R-mFc binding to CHO hCD112 cells
Experimental: CHO hCD112 cells (Chinese hamster ovary cells, human CD112 positive) were incubated with different concentrations of the bispecific antibodies JS-1, JS-3, JS-5 and JS-9 and 1 μg/mL human CD112R-mFc protein at 4° C. for 30 min, then washed twice and incubated with a fluorescence-labeled anti-mouse IgG secondary antibody (1:200) in a dark place at 4° C. for 30 min. Finally, the cells were collected using a flow cytometer (BD Canto II), and the fluorescent antibodies bound to the cell surface were detected. Raw data were analyzed using FlowJo to obtain MFI values, antibody dose-dependent binding curves (FIG. 4) were fitted using GraphPad, and IC50 was calculated. The positive controls were hu52 (a recombinant humanized anti-CD112R monoclonal antibody) and JS-Ref (Hengrui) (an anti-TIGIT/CD112R bispecific antibody of Hengrui, expressed and purified according to the sequence of the patent WO2021180205), and the negative control was an anti-KLH-hIgG1 antibody.

[4] = target: T4, recombinant human HX1 hCD112R Fc; experiment: ELISA, plate coated with recombinant human HX1 hCD112R Fc, detection with HRP anti-human IgG4 Fc; unit taken from the concentration axis [3a]
Experimental: (§2) 2. Procedures [0255] a. A 96-well plate was coated with 1.0 μg/mL recombinant human HX1 hCD112R Fc (Suzhou Junmeng) as the antigen at 100 μL/well and incubated at 37° C. for 1.5 h. [0256] b. The plate was washed 4 times with 300 μL/well 1×PBST, and 2% BSA was added at 200 μL/well. The plate was blocked at 37° C. for 1.5 h. [0257] c. The plate was washed 4 times with 300 μL/well 1×PBST, and serial dilutions of the bispecific antibodies JS-1,3,5,9 and a negative control: antibody (anti-KLH hIgG4) (initial concentration 3.0 μg/mL, 3-fold serially diluted to 12 concentration points, 100 μL/well) were added. The plate was incubated at 37° C. for 1 h. [0258] d. The plate was washed 4 times with 300 μL/well 1×PBST. [0259] e. 5000-fold diluted horseradish peroxidase (HRP)-conjugated mouse anti-human IgG4 Fc antibody (Southern Biotech, 9200-05) was added at 100 μL/well, and the plate was incubated at 37° C. for 1 h. [0260] f. The plate was washed 4 times with 300 μL/well 1×PBST. [0261] g. 0.1 mg/mL TMB was added at 100 μL/well, and after the plate was incubated at 37° C. for 15 min, a 2 M solution of hydrochloric acid was added at 100 μL/well to stop the reactions. […] The absorbance was measured at 450 nm/620 nm on a microplate reader, and data were analyzed using Graphpad Prism7.

[5] = target: T4, recombinant human HX1 hCD112R Fc; experiment: ELISA, plate coated with recombinant human HX1 hCD112R Fc, detection with HRP anti-human IgG4 Fc; unit taken from the concentration axis [3b]
Experimental: as §2

| IC50 [1] [nM] | EC50 [2] [ng/mL] | EC50 [3] [ng/mL] | IC50 (human CD112R-mFc protein) [nM] | EC50 [4] [ng/mL] | EC50 [5] [ng/mL] | Binder |
| --- | --- | --- | --- | --- | --- | --- |
| 1.98 | 20.9 | 6.63 | – | – | – | hu20 (a recombinant humanized anti-TIGIT monoclonal antibody) (antibody, V domains shown, vector hu20-2O18HC-3; also called hu20 mAb; anti-TIGIT antibody; not shown: heavy chain constant region) VH: QVQLVQSGAEVKKPGASVKVSCKTSGYAFTEYTMHWVRQAPGKGLEWMGGINPNTGGTTYNQKFQGRVTLTVDKSSSTAYMELSSLRSEDTVVYYCAKLLRLMYYFDYWGQGTLVTVSS VL: DIQMTQSPSSLSASVGDRVTITCQASQDVRTAVAWYQQKPGKAPKLLIYSASYRYTGVPSRFSGSGSGTDFTFTISSLQPEDIATYYCHQHYITPWTFGGGTKVEIKR |
| – | – | – | 0.601 | 2.46 | 2.62 | hu52 (a recombinant humanized anti-CD112R monoclonal antibody) (antibody, human IgG4 S228P, kappa, V domains shown, also called hu52 mAb; anti-CD112R antibody) VH: EVQLVESGGGLVKPGGSLRLSCAASGFTFSSYHMSWVRQAPGKGLELVSAINSNGINTYYLDTVKGRFTISRDNAKNSLYLQMNSLRAEDTAVYYCARHEDYYGFAMDYWGQGTLVTVSS VL: DIVMTQSPDSLAVSLGERATINCKASQSVSNDVAWYQQKPGQPPKLLIYYVSHRFTGVPDRFSGSGSGTDFTLTISSLQAEDVAVYFCHQAYRSPWTFGQGTKLEIKR |
